Values quoted from earlier work as cited in patent US7630838B2, “Method for identifying agents that interact with beta-site APP cleaving enzyme (BACE)” (American Home Products Corporation, priority 2000, dated 2009).
Non-standard residues stand in square brackets, D forms with d. No end group written: not given here. Sta = CC(C)C[C@H](N)[C@@H](O)CC(=O)O

Target: β-secretase enzyme (Homo sapiens, UniProt P56817)
Settings: stated in words only; no number given

β-secretase enzyme, sequence (P56817 46-501): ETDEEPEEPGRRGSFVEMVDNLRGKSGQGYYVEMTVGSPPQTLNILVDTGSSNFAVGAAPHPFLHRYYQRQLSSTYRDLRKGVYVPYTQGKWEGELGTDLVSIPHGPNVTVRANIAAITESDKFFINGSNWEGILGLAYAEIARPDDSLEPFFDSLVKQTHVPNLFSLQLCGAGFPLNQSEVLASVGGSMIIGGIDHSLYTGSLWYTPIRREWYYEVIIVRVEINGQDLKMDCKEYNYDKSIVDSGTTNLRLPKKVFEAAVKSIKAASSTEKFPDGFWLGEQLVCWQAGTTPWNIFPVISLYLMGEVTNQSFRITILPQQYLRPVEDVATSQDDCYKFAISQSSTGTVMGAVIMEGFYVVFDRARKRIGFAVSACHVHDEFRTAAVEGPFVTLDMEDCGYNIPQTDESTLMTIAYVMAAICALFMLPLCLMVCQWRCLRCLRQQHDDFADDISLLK

## SER-GLU-VAL-ASN-Sta-VAL-ALA-GLU-PHE (SEVN[Sta]VAEF) [statine based inhibitor, based on the APP Swedish mutation]
  inhibit the β-secretase enzyme (efficiency): nanomolar efficiency
